Reference: patent publication US20250243261A1
pKd: −log10 of the molar value.

Legend:
[1] = target: HA H4 Hubei, A/swine/Hubei/06/2009(H4N1) (Influenza A virus); experiment: BLI, Fab
[2] = target: HA H7 HK17, A/Hong Kong/125/2017(H7N9) (Influenza A virus); experiment: BLI, Fab
[3] = target: SARS-CoV-2 Wuhan Spike on pseudotyped lentivirus (SARS-CoV-2 Wuhan-Hu-1) (UniProt P0DTC2); experiment: cell-based or functional assay

Chain of LY-1404 WT IgG (antibody) (VH): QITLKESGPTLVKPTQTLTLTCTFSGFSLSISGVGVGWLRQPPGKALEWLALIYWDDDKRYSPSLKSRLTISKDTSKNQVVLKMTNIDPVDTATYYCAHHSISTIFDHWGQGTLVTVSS
Chain of LY-1404 WT IgG (antibody) (VL): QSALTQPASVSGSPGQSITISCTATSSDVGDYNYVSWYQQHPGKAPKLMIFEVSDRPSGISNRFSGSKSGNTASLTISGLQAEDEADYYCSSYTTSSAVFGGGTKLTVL

| Substance | pKd [1] | pKd [2] | Wuhan pseudotyped lentivirus IC50 [3] |
| --- | --- | --- | --- |
| MEDI8852 WT Fab | 9.25 | 9.70 | – |
| LY-1404 WT IgG (antibody) | – | – | 3.1 µg/mL |
